The source of these data is US6713042B2, “Ascorbic acid analogs for metalloradiopharmaceuticals” (Bristol-Myers Squibb Pharma Company, priority 2001, dated 2004).

Bounds are passed on as bounds.

Data set [1] in a line: Solution stability of the 90Y-labeled conjugate in ascorbic acid buffer, RCP by HPLC (Method 1). Particulars: for RCP (radiochemical purity): 0.1 M ascorbic acid buffer pH 5.0. It counts as physicochemical. The method, then: The integrity of a radiopharmaceutical is measured by the radiochemical purity (RCP) of the radiolabeled compound using ITLC or more preferably HPLC. The advantage of using HPLC is that radio-impurities caused by radiolytic degradation can be separated from the radiopharmaceutical under optimized chromatographic conditions. […] The radiopharmaceutical compositions of this invention are effective in maintaining the long-term stability of samples that have been frozen, thawed, and re-tested up to 5 days post-labeling.
The initial RCP of a radiopharmaceutical is largely dependent on radiolabeling conditions such as pH, heating temperature and time. Once a radiopharmaceutical is prepared in high yield, the ability of an antioxidant to stabilize a radiopharmaceutical composition is measured by the RCP change over a certain period of time.
The integrity of a radiopharmaceutical is measured by the radiochemical purity (RCP) of the radiolabeled compound using ITLC or more preferably HPLC. The advantage of using HPLC is that radio-impurities caused by radiolytic degradation can be separated from the radiopharmaceutical under optimized chromatographic conditions. […] The radiopharmaceutical compositions of this invention are effective in maintaining the long-term stability of samples that have been frozen, thawed, and re-tested periodically for 5 days.
The initial RCP of a radiopharmaceutical is largely dependent on radiolabeling conditions such as pH, heating temperature and time. Once a radiopharmaceutical is prepared in high yield, the stability of the radiopharmaceutical composition is measured by the RCP change of the radiopharmaceutical over a certain period of time.
Analytical Methods. HPLC method 1 used a HP-1100 HPLC system with a UV/visible detector (Δ=220 nm), an IN-US radio-detector, and a Zorbax C18 column (4.6 mm×250 mm, 80 A pore size). The flow rate was 1 mL/min with the mobile phase starting with 92% solvent A (0.025 M ammonium acetate buffer, pH 6.8) and 8% solvent B (acetonitrile) to 90% solvent A and […] at 18 min, followed by an isocratic wash using 40% of solvent A and 60% solvent B from 19 to 25 min.
(2S)-2-[({2,6-Dimethyl-4-[3-(N-{2-[3-sulfo-2-(3-sulfo-2-{2-[1,4,7,10-tetraaza-4,7,10-tris(carboxymethyl) cyclododecyl]acetylamino}propyl)propyl]ethyl}carbamoyl)-propoxy]phenyl}sulfonyl)amino]-3-({7-[(imidazol-2-ylamino)methyl]-1-methyl-4-oxo(3-hydroquinolyl)}-carbonylamino)propanoic acid trifluoroacetate was prepared as disclosed in U.S. patent application Ser. No. 09/456,300 and was subsequently dissolved in 0.1 M AA buffer (pH 5.0) to give a concentration of 100 μg/mL. The resulting solution was immediately degassed under vacuum for another 1-2 min. To a clean sealed 5 mL vial was added 5.0 mL of 0.1 M ascorbic acid buffer (pH 5.0) containing 500 μg of (2S)-2-[({2,6-Dimethyl-4-[3-(N-{2-[3-sulfo-2-(3-sulfo-2-{2-[1,4,7,10-tetraaza-4,7,10-tris(carboxymethyl) cyclododecyl]acetylamino}propyl) propyl]ethyl}carbamoyl)propoxy]phenyl}sulfonyl)amino]-3-({7-[(imidazol-2-ylamino)methyl]-1-methyl-4-oxo(3-hydroquinolyl)}carbonylamino)propanoic acid trifluoroacetate. The solution was degassed again under vacuum. Upon addition of ˜75 μL of ^90YCl3 solution (101.5 mCi) in 0.05 N HCl, the reaction mixture was heated at 95° C. for 30 min. After cooling to room temperature, a sample of the resulting solution was diluted 50-fold with saline containing sodium gentisate (10 mg/mL), and was then analyzed by HPLC (Method 1, injection volume 5 μL). The resulting mixture was then kept in a dry-ice box (−78° C.) for 5 days. Samples were analyzed at t=0 (RCP=98.5%), 24 h (RCP=98.4%), 68 h (RCP=98.0%), and 120 h (RCP=98.8%). The retention time was 14.8 min.

Data set [2] in a line: Solution stability of the 111In-labeled conjugate in ascorbic acid buffer, RCP by HPLC (Method 3). It counts as physicochemical. Particulars: for RCP (radiochemical purity): 0.1 M ascorbic acid buffer pH 6.0. How it is done: The integrity of a radiopharmaceutical is measured by the radiochemical purity (RCP) of the radiolabeled compound using ITLC or more preferably HPLC. The advantage of using HPLC is that radio-impurities caused by radiolytic degradation can be separated from the radiopharmaceutical under optimized chromatographic conditions. […] The radiopharmaceutical compositions of this invention are effective in maintaining the long-term stability of samples that have been frozen, thawed, and re-tested up to 5 days post-labeling. The initial RCP of a radiopharmaceutical is largely dependent on radiolabeling conditions such as pH, heating temperature and time. Once a radiopharmaceutical is prepared in high yield, the ability of an antioxidant to stabilize a radiopharmaceutical composition is measured by the RCP change over a certain period of time. The integrity of a radiopharmaceutical is measured by the radiochemical purity (RCP) of the radiolabeled compound using ITLC or more preferably HPLC. The advantage of using HPLC is that radio-impurities caused by radiolytic degradation can be separated from the radiopharmaceutical under optimized chromatographic conditions. […] The radiopharmaceutical compositions of this invention are effective in maintaining the long-term stability of samples that have been frozen, thawed, and re-tested periodically for 5 days. The initial RCP of a radiopharmaceutical is largely dependent on radiolabeling conditions such as pH, heating temperature and time. Once a radiopharmaceutical is prepared in high yield, the stability of the radiopharmaceutical composition is measured by the RCP change of the radiopharmaceutical over a certain period of time. HPLC method 3 used a HP-1100 HPLC system with a UV/visible detector (k=220 nm), an IN-US radio-detector, and a Zorbax C18 column (4.6 mm×250 mm, 80 A pore size). […] After cooling to room temperature, a sample of the resulting solution was then analyzed by HPLC (Method 3, injection volume=10 μL). […] Samples were analyzed at t 0 (RCP 98.2%) and 24 h (RCP=97.6%). […]

[3] abbreviates: 5 mL AA solution containing 100 mg AA, pH=5.0.

As to “^90Y-(2S)-2-[({2,6-Dimethyl-4-[3-(N-{2-[3-sulfo-2-(3-sulfo-^2-{^2-[1,4,7,10-tetraaza-4,7,10-tris(carboxymethyl) cyclododecyl]acetylamino}--propyl)propyl]ethyl}carbamoyl)-propoxy]phenyl}sulfonyl)amino]-^3-({^7-[(imidazol-2-ylamino)methyl]-1-methyl-4-oxo(3-hydroquinolyl)}-carbonylamino)propanoic acid trifluoroacetate [Example 2]”, the “RCP while stable over at least 5 days” value in data set [1] (setting [3]) is over 96%. Moreover, the “remains stable (time)” value in data set [1] (setting [3]) is recorded as “at least 5 days”. Moreover, the “RCP (radiochemical purity)” value is given as 98.4% in data set [1] (24 h, kept in dry-ice box (-78° C.)); 98.0% in data set [1] (68 h, kept in dry-ice box (-78° C.)); 98.8% in data set [1] (120 h, kept in dry-ice box (-78° C.)); 98.5% in data set [1] (t=0, 100 mCi 90Y).

In the case of “^111In-(2S)-2-[({2,6-Dimethyl-4-[3-(N-{2-[3-sulfo-2-(3-sulfo-2-{2-[1,4,7,10-tetraaza-4,7,10-tris(carboxymethyl) cyclododecyl]acetylamino}--propyl)propyl]ethyl}carbamoyl)-propoxy]phenyl}sulfonyl)amino]-3-({7-[(imidazol-2-ylamino)methyl]-1-methyl-4-oxo(3-hydroquinolyl)}-carbonylamino)propanoic acid trifluoroacetate [Example 3]”, in data set [2] (0.1 M ascorbic acid buffer pH 6.0, room temperature), the “remains stable in solution (time)” value is recorded as “at least 24 hours”. For the same substance, the “RCP (radiochemical purity)” value in data set [2] (24 h, kept at room temperature) worked out at 97.6%; in data set [2] (t 0, 2.8 mCi 111In) it was 98.2%.
